Biological target: SARS-CoV-2 wild-type (WT) spike protein trimer (SARS-CoV-2) (UniProt P0DTC2)
Test: SPR

Substance: LCB1 mini-binder protein (designed binder)
- Kd: 1.22 nM

From publication doi:10.1101/2023.09.18.558353
